Measured values taken from patent publication US20070092518A1 (published 2007).
Substitutions are numbered along the chain they refer to.

Legend:
[1] = target: T1, human tumor necrosis factor-α (rHuTNF-alpha, Biosource) (human, UniProt P01375 77-233); assay: solid-phase ELISA, Fab lysate on coated rHuTNF-alpha
T1 construct: Bought recombinant protein coated on ELISA plates; The TNFα of the Biacore assay is not described further; also called TNFα; human TNFα
Procedure, shortened: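 E. coli lysates expressing His-tagged Fab (pTrcHis2A) were incubated 2 h at RT on wells coated with 1 μg/ml rHuTNF-α and blocked with BSA. Bound Fab was detected with biotinylated anti-human kappa plus penta-His conjugates, then streptavidin-POD and TMB. Absorbance was read at 450 nm.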

[2] = target: T1, human tumor necrosis factor-α …; assay: Biacore, against infliximab
[3] = target: T1, human tumor necrosis factor-α …; assay: Biacore

T1 sequence (P01375 77-233 limits assumed): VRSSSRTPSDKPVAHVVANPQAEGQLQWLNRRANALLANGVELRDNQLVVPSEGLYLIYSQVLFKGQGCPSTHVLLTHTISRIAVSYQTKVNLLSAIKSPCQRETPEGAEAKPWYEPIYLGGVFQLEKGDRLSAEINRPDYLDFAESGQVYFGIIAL

B1: SEQ ID NO 163 (Fab, V domains shown)
VH: EVQLVESGGGLVQPGGSLRLSCAASQFIFSNHWMNWVRQAPGKGLEWIGEIRSKSIYSATHYAESVKGRFIISRDDNKTDLTLEMNSLKTEDTAEYYCAQNYYGSTPDYWGQGTLVTVS
VL: EIVLTQSPDFQSVTPKEKVTITCRASQFVGSSIHWYQQKPDQSPKLLIKYASESMSGVPSRFSGSGSGTDFTFTISSLEAEDAATYYCQQSHSWPFTFGPGTKVDIK
notes: Fab, E. coli lysate
B1: binds [1].

B2: SEQ ID NO 71 (Fab, V domains shown)
VH: B1 VH with V5T, A23R, Q26G, F27S, I28T, S58G, H61S, D76G, D80S, Q100R
VL: B1 VL
notes: Fab, E. coli lysate
B2: binds [1].

B3: SEQ ID NO 172 (Fab, V domains shown)
VH: B1 VH with V5T, Q26G, I28T, S58G, D76G, T79N
VL: B1 VL
notes: Fab, E. coli lysate
B3: binds [1].

B4: SEQ ID NO 167 (Fab, V domains shown)
VH: B1 VH with I28T, I56S, S58G, Q100R, P107Y
VL: B1 VL
notes: Fab, E. coli lysate
B4: binds [1].

B5: SEQ ID NO 165 (Fab, V domains shown)
VH: B1 VH with I28T, W33Y, I56S, S58G, D76G, T82Y, P107Y
VL: B1 VL
notes: Fab, E. coli lysate
B5: binds [1].

B6: SEQ ID NO 168 (Fab, V domains shown)
VH: B1 VH with V5T, F27S, I28T, Y57N, S58G, H61S, D76G, D80S, T82Y, Q100R
VL: B1 VL
notes: Fab, E. coli lysate
B6: binds [1].

B7: SEQ ID NO 171 (Fab, V domains shown)
VH: B1 VH with F27S, I28T, W33Y, H61S, K78G, T79N, D80S, T82Y
VL: B1 VL
notes: Fab, E. coli lysate
B7: binds [1].

B8: SEQ ID NO 164 (Fab, V domains shown)
VH: B1 VH with V5T, Q26G, F27S, W33Y, D76G, K78G, T82Y, Q100R, P107Y
VL: B1 VL
notes: Fab, E. coli lysate
B8: binds [1].

B9: SEQ ID NO 190 (Fab, V domains shown)
VH: B1 VH with A23R, Q26G, Y57N, H61S, D76G, Q100R, P107Y
VL: B1 VL
notes: Fab, E. coli lysate
B9: binds [1].

B10: SEQ ID NO 184 (Fab, V domains shown)
VH: B1 VH with W33Y, Y57N, D76G, K78G, T82Y, Q100R, P107Y
VL: B1 VL
notes: Fab, E. coli lysate
B10: binds [1].

B11: SEQ ID NO 189 (Fab, V domains shown)
VH: B1 VH with V5T, I28T, K78G, D80S, Q100R
VL: B1 VL
notes: Fab, E. coli lysate
B11: binds [1].

B12: SEQ ID NO 181 (Fab, V domains shown)
VH: B1 VH with Q26G, I28T, I56S, T79N, D80S
VL: B1 VL
notes: Fab, E. coli lysate
B12: binds [1].

B13: SEQ ID NO 187 (Fab, V domains shown)
VH: EVQLTESGGGLVQPGGSLRLSCAASGFTFSNHYMNWVRQAPGKGLEWIGEIRSKSSYGATSYAESVKGRFIISRDGNGTDLYLEMNSLKTEDTAEYYCAQNYYGSTYDYWGQGTLVTVS
VL: B1 VL
notes: Fab, E. coli lysate
B13: binds [1].

B14: SEQ ID NO 169 (Fab, V domains shown)
VH: B13 VH with T28I, S56I, Y57N, G76D, T79N, Y82T, Y107P
VL: B1 VL
notes: Fab, E. coli lysate
B14: binds [1].

B15: SEQ ID NO 179 (Fab, V domains shown)
VH: B1 VH with V5T, I28T, I56S, Y57N, S58G, K78G, D80S, Q100R
VL: B1 VL
notes: Fab, E. coli lysate
B15: binds [1].

B16: SEQ ID NO 180 (Fab, V domains shown)
VH: B1 VH with A23R, Q26G, W33Y, I56S, Y57N, D80S
VL: B1 VL
notes: Fab, E. coli lysate
B16: binds [1].

B17: SEQ ID NO 175 (Fab, V domains shown)
VH: B1 VH with A23R, Q26G, Y57N, S58G, D80S, P107Y
VL: B1 VL
notes: Fab, E. coli lysate
B17: binds [1].

B18: SEQ ID NO 170 (Fab, V domains shown)
VH: B1 VH with Q26G, F27S, I28T, Y57N, K78G, D80S, T82Y, P107Y
VL: B1 VL
notes: Fab, E. coli lysate
B18: binds [1].

B19: SEQ ID NO 177 (Fab, V domains shown)
VH: B13 VH with G26Q, F27S, Y57N, G76D, G78K, T79N, Y82T
VL: B1 VL
notes: Fab, E. coli lysate
B19: binds [1].

B20: SEQ ID NO 166 (Fab, V domains shown)
VH: B1 VH with W33Y, Y57N, H61S, D76G, T82Y, Q100R, P107Y
VL: B1 VL
notes: Fab, E. coli lysate
B20: binds [1].

B21: SEQ ID NO 178 (Fab, V domains shown)
VH: B1 VH with Q26G, I28T, W33Y, D76G, K78G, T79N, D80S, Q100R
VL: B1 VL
notes: Fab, E. coli lysate
B21: binds [1].

B22: TNFα antibody C7 (full-length antibody) (antibody, V domains shown)
VH: B1 VH with Q26G, Y57N, T79N, D80S, T82Y, Q100R, P107Y
VL: B1 VL
notes: Variable regions subcloned into a mammalian construct with infliximab constant region (IgG1 kappa)
B22 was tested, and the “fold higher binding affinity than infliximab” value [2] was > 2 fold and the Kd [3] was 0.07 nM.

B23: SEQ ID NO 186 (Fab, V domains shown)
VH: B13 VH with F27S, S56I, G58S, G76D, T79N, D80S, Y82T, Q100R, Y107P
VL: B1 VL
notes: Fab, E. coli lysate
B23: binds [1].

B24: SEQ ID NO 188 (Fab, V domains shown)
VH: B13 VH with T5V, T28I, S56I, G76D, G78K, T79N
VL: B1 VL
notes: Fab, E. coli lysate
B24: binds [1].

B25: SEQ ID NO 182 (Fab, V domains shown)
VH: B13 VH with S56I, G58S, S61H, Y107P
VL: B1 VL
notes: Fab, E. coli lysate
B25: binds [1].

B26: SEQ ID NO 174 (Fab, V domains shown)
VH: B1 VH with A23R, Q26G, F27S, I28T, W33Y, I56S, H61S
VL: B1 VL
notes: Fab, E. coli lysate
B26: binds [1].
